{"source": "patent US20100203150A1", "about": "“Novel amphiphilic copolymers and fabrication method thereof” (priority 2009, published 2010)", "assay": "Solubility in common solvents and co-solvents", "conditions": "some common organic solvents and co-solvents", "data": [{"substance": "5′-deoxy-5-fluorouridine-poly(ε-caprolactone) [5′-DFUR-PCL]", "values": [{"measurement": "solubility", "result": "soluble"}]}]}
